Measurements as given in the supplement of paper PMC9170038.

System: MS2 coat protein
Assay: apparent KD of MS2 coat protein; designed switch direction (-1 OFF switch, 1 ON switch): -1; higher = weaker reporter binding
Method in brief: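 Three titration conditions were used: no input, 200 uM small-molecule ligand, and an oligonucleotide input. In each, SNAP-549-labelled MS2 coat protein was raised from 0.7 or 1.5 nM, doubling, to 3 µM over designed RNA switches transcribed on Illumina chips by stalled E. coli RNA polymerase. Curve fits of normalised cluster fluorescence gave values whose per-design median over clusters is the apparent KD.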

[1] = Eterna round: R95, input ligand: microRNA oligo, concentration not stated
[2] = input ligand: microRNA oligo, concentration not stated
[3] = Eterna round: R95, input ligand: FMN 200 uM
[4] = Eterna round: R95, input ligand: none

| Sequence | apparent KD of MS2 coat protein (input ligand: FMN 200 uM) [nM] | apparent KD of MS2 coat protein (input ligand: none) [nM] | apparent KD of MS2 coat protein [1] [nM] | apparent KD of MS2 coat protein [2] [nM] | apparent KD of MS2 coat protein [3] [nM] | apparent KD of MS2 coat protein [4] [nM] |
| --- | --- | --- | --- | --- | --- | --- |
| CGAUAAUCCUAGGAUAUGCUAGACGAAAGUCUAGCAGAAGGAGGAACAUGAGGAUCACCCAUGUGUCCUAAUCG [Mat - Exclusion 6 - Eli Mod - D17] (Eterna round: R97, puzzle: Exclusion 6) | 30.9 | 15.3 | – | – | – | – |
| UACUUGUUAGGAUAUCUUACAUUUGCAUCAUAGUAACCAUUGGAGAAGGGACAUGAGGAUCACCCAUGUUUGGA [tap-tap-tappy2] (Eterna round: R97, puzzle: Exclusion 4) | 32.2 | 31.5 | – | – | – | – |
| GUUAAUUGUGACAUGGGUGACAUGAGGAUCACCCAUGUCACAAGCUUUUUGCUCGUCUUAUAAUUAACCCAUGUCAC [Stov1/13-A2] (Eterna round: R97, puzzle: Sensor, turn-off variant 1) | 29.1 | 41.2 | – | – | – | – |
| CCUUAGUUAGGAUAUCGGAUUGUUCACGGUGCUCACCGGGUCGAGAAGGAACAUGAGGAUCACCCAUGUCACGA [Eternabot (L1) Solution 72] (Eterna round: R97, puzzle: Exclusion 4) | 60.1 | 42.5 | – | – | – | – |
| GGUAGAGAGCAGGAUAUCUUGGGUAAGUAUCGUAGAGAAGGGCUCACAUGAGGAUCACCCAUGUGGUCCAAGAU [JL Dibiri mod 05] (puzzle: Exclusion 6) | – | – | 14.2 | – | – | – |
| GCGGUACAUGAGGAUCACCCAUGUCAGGAUAUCCGCUGUUUGUUAAUAAACAAGCGGUGGAGAAGGGACUUCGC [-26.2, -25.5 kcal, 27% A] (Eterna round: R97, puzzle: Exclusion 1) | 35.2 | 31.5 | – | – | – | – |
| GGCCCGGGAGGAUAUACAUGAGGAUCACCCAUGUUGAAGUUGAAGAUCUUCGGCUUCGGUAGAAGGCCCGGGCC [-35, -32.8 kcal, 23% A, 3, 0] (Eterna round: R97, puzzle: Exclusion 3) | 18.2 | 13.6 | – | – | – | – |
| AAUAGUCGGUAGGAUAUCCACGGAUGACCGGCAGGAGAAGGGCCGACUUGAGGAUCACCCAAGUAUGGUCCUAA [Texeonxe] (Eterna round: R97, puzzle: Exclusion 6) | 15.9 | 14.5 | – | – | – | – |
| GAUUAACAAGCGAGAUCCCACAUGAGGAUCACCCAUGUGCUCGUCUUAUAAGGUACUGUGACGAAAGUCACGGUACC [Mat - Sensor, turn-off var - Eli Mod - D5] (Eterna round: R97, puzzle: Sensor, turn-off variant 1) | 13.5 | 15.2 | – | – | – | – |
| UACAUGAGGAUCACCCAUGUUUUGUCGUGUAUGGUAUUUAUCUAGGAUAUCAAUUUAGUUAUUUAUGAGAAGGAGAAUAUUAAU [JMF's solution 18] (Eterna round: R96, puzzle: Exclusion NG 3) | 33.6 | 43.1 | – | 32.8 | – | – |
| GGUUGGCGAGGAUAUACAUGAGGAUCACCCAUGUGAGAGAAAUAAGUGAGGAAGAAAAGUAGAAGGCGCUGACG [salish99_ex3_r3_014] (puzzle: Exclusion 3) | – | – | 59.4 | – | 222 | 79.2 |
| GGUUGGCGAGGAUAUACAUGAGGAUCACCCAUGUGGUCCUGUGGCUGGUCUAAACUUUGUAGAAGGCGCGGGUC [salish99_ex3_r4_022] (Eterna round: R97, puzzle: Exclusion 3) | 84.9 | 78.1 | – | – | – | – |
| CAUACACAUGAGGAUCACCCAUGUGAGGAUAUGCGUACGUUGUCCGUAGGCGACGUGCGCAGAAGGCGCGAGGU [JL-ex1-3.16 Eli mod] (puzzle: Exclusion 1) | – | – | 28.4 | – | – | – |
| UAAGAUUACCGAGGAUAUGGUGGUUUCUAUUAACCAGAAGGCGGACUCAACAUGAGGAUCACCCAUGUAUAAAGGGUAUUAGAU [Ex NG1 #8] (Eterna round: R96, puzzle: Exclusion NG 1) | 134 | 144 | – | 112 | – | – |
| GCAGGAUAAGUGAGGAUAUACCUAUGGAUACAUAGGUAGAAGGCACAUGAGGAUCACCCAUGUUCCUUACCUGC [Fiskers BMX 4 - 66] (puzzle: Brourd's mod of Exclusion 4) | – | – | 11.5 | – | 42 | 13 |
| GUUAACGCAGGAUAUUAGUACAUGUACAUGAGGAUCACCCAUGUUUAUUGGGUCUAAGAAUAAGAAGGGCGAUGAA [JR_Ex5_Sub006] (Eterna round: R97, puzzle: Exclusion 5) | 402 | 631 | – | – | – | – |
| AAAAUGGUCUAGGAUAUGACAAAUCUGAUCACGUCAGAAGGAGACACAUGAGGAUCACCCAUGUGGGUGCGAAA [Qureenan] (puzzle: Exclusion 6) | – | – | 44.4 | – | 130 | 39.5 |
| GUACUGAGGCUUUGCUUUAGUCGUACAUGAGGAUCACCCAUGUAGGAUAUGGUAGGCUUUGCUUACCAGAAGGACAGAGUGAUC [JL EXNG3 1.22] (Eterna round: R96, puzzle: Exclusion NG 3) | – | – | – | 188 | – | – |
| CGAUAGAUAGGAUAUACAUGAGGAUCACCCAUGUGAACGGGUAGAUUUGUCAACUGAAGUAGAAGGAUCGUCGC [Eternabot (L2) Solution 64] (Eterna round: R97, puzzle: Exclusion 3) | 132 | 761 | – | – | – | – |
| GGAUUUACUGAGGAUAUUGCAUCACCCGACUGAUAAGAAGGCAGAACAUGAGGAUCACCCAUGUGGGUACUCAA [Bingo-Bango-5] (Eterna round: R97, puzzle: Exclusion 6) | 95 | 105 | – | – | – | – |
| CCAUAUAACUGAGGAUAUAAUCGCCACUGACGUUUAGAAGGCAGACAUGAGGAUCACCCAUGUGAUUUCUCAAUAUUAUACAUC [Prohibition 78 - Jieux - Exclusion NG 1] (Eterna round: R96, puzzle: Exclusion NG 1) | 1840 | 245 | – | 31.1 | – | – |
| ACUAGCGAAAUGCUCGUCUUAUUUUUGUAGAGGUUCUAAACAUGAGGAUCACCCAUGUAGUGGUUUUUGUGGAGGUA [JR_SV3TOV2_Sub071] (puzzle: Sensor v3, turn-off variant 2) | – | – | – | – | 222 | 349 |
| AAAUAGGGAGGAUAUCCAAUAUAUGACAUGAGGAUCACCCAUGUUUCCACUCGUACCUCCGGAGAAGGCCCAUAAU [Ex5 #2] (Eterna round: R97, puzzle: Exclusion 5) | 25.8 | 23.9 | – | – | – | – |
| GAGAAGGUAGGAUAUACGAAGAAAGAGGGUAGUAAUAAUACACAUGAGGAUCACCCAUGUAGAAGGACCAAGAG [Mat - Exclusion 2 - Mod of my Tesla design - D45] (puzzle: Exclusion 2) | – | – | 24.7 | – | 35.9 | 21.7 |
| UAUAUGUCAGGAUAUUAGUAGUAAAUGAAUAAAAUUAUUACUGAGAAGGGACAUGAGGAUCACCCAUGUGCCUU [Mat - Exclusion 4 - Eli Mod - D23] (Eterna round: R97, puzzle: Exclusion 4) | 20.6 | 16.6 | – | – | – | – |
| GAGCUAUGAGGAUAUGCAUAGAUACGGAUUCGUGUAGUACUACAUGAGGAUCACCCAUGUAGAAGGCGUGGCAG [Mat - Exclusion 2 - Mod of JL - D76] (puzzle: Exclusion 2) | – | – | 13.9 | – | – | – |
